The record followed here is patent US7807387B2, “Biological agent that causes IL-6 receptor release” (Meyer Pharmaceuticals LLC, priority 2003, dated 2010).

One data set concerns the target p55 TNF Receptor (Homo sapiens, UniProt P19438). The data set can be described thus: FRET peptide cleavage assay, p55 TNF receptor peptide. Format: biochemical. The note with it: Zn++ 0.1 mM, Ca++ 2 mM, corrected for EDTA, 37° C. for 3 hours. As for the experimental part: Cytokine-specific proteolytic activity can rapidly be quantified by Fluorescence Resonance Energy Transfer (FRET). Peptides having the amino acid sequence of the TNF Receptor or other protein substrates are labeled at opposite ends with a fluorescence emitter and a fluorescence quencher. The peptide is then incubated with a source of receptor cleaving enzyme, and fluorescence is measured. The quenching group normally absorbs fluorescence from the emitter. But enzymatic cleavage of the peptide decouples the quenching group, and fluorescence emission increases proportionally.
The peptides used as substrates in the cleavage assay were taken from the known sites of proteolytic cleavage of the whole protein. The peptides were labeled with the fluorescence emitter (Edans-●) at the C-terminal, and the quenching hapten (Dabcyl-▴) at the N-terminal.
The assay is conducted in the presence of the metal cations Zn^++ (0.1 mM) and Ca^++ (2 mM), and corrected for cleavage in the presence of EDTA (20 mM). Dependence on divalent cations confirms that the enzyme activity measured in this assay is a metalloprotease. The assay mixture also contains a cocktail of protease inhibitors and bovine albumin. Cleavage is measured as the net change in fluorescence emission after incubating the enzyme with the peptide at 37° C. for 3 hours. […]

For a further data set, the target named is T1, p75 TNF Receptor (Homo sapiens, UniProt P20333).
T1 construct: endogenous in cells; host or cells: THP-1
T1 sequence (P20333 23-461): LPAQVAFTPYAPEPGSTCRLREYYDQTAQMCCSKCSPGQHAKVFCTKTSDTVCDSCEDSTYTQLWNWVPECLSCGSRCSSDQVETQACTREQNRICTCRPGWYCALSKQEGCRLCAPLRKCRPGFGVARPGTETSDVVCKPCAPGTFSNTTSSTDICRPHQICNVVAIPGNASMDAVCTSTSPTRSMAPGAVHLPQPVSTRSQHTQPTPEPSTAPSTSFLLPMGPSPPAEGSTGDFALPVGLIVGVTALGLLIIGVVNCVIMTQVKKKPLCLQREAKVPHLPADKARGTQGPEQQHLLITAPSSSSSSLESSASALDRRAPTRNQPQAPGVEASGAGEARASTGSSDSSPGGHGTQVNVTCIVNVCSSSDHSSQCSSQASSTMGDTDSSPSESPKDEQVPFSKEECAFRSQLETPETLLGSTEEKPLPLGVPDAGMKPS
Description: Cleavage of cell surface p75 TNF receptor on THP-1 cells. The note with it: 45 minutes at 37° C. Format: cell-based. As for the experimental part:
This cell line expresses both the p55 TNF receptor and the p75 TNF receptor. After incubating for 45 minutes at 37° C., the cells were washed, immunostained for cell surface receptor, and counted by flow cytometry.

A further data set concerns LPS-induced septic shock. The data set can be described thus: LPS/galactosamine-induced septic shock model. Format: in vivo, Balb/c mice. The procedure: A classic model for determining effectiveness of agents against cytokine-mediated inflammation is endotoxin-induced septic shock (Morrison et al., J Infect Dis 162:1063, 1990).
The septic shock experiment was conducted as follows. Female Balb/c mice were randomized by weight into 6 treatment groups. Sepsis was induced by injecting 10 μg LPS and 7 mg galactosamine in the lateral or dorsal caudal vein. Some of the groups were pretreated with 50,000 FU of MP8 simultaneously or 3 hours in advance of the LPS challenge to determine whether there was a protective effect.
FIG. 8 is a Kaplan-Meier survival curve, showing the mortality in each of the treatment groups in the study. Without any treatment or challenge, there is no effect on the animals, and the line stays at the top. Life-compromising challenge causes the line to fall to the bottom of the graph in a step-wise fashion as each animal succumbs. Treatment that is protective against the challenge maintains the line near the top of the graph.
The enzyme was administered in a volume of 110 μL at one hour before the LPS challenge.
Stability of the clinical effect of MP8 was determined in the septic shock model. Female Balb/c mice were injected with 300,000 FU of MP8 that had been stored for 4 days at −70° C., or 7 days at 4° C. One hour later, the mice were challenged with 10 μg LPS and 7 mg galactosamine as before.
In this example, durability of receptor cleavage in vivo was determined by treating animals subcutaneously up to three days in advance with 300,000 FU of MP8. The mice were then challenged with […] LPS and 7 mg galactosamine in the usual fashion.
Sepsis was induced in Balb/c mice by administering 10 μg LPS and […] galactosamine, as in Example 3. Randomized groups were pretreated with up to 40 μg MP8-FL2 one hours in advance of the LPS challenge.

Data set [1] is described as follows: Stability of receptor cleaving activity upon storage (FRET assay). It is filed as physicochemical. The conditions noted are these: a month of storage at 4° C. or −70° C., purified form. As for the experimental part:
The stability of MP8 was determined by storing aliquots of MP8 at 4° C. or −70°. Aliquots were taken out periodically to determine enzyme cleaving activity in the fluorescence resonance energy transfer peptide cleavage assay.

The subject of data set [2] is collagen-induced arthritis. The data set can be described thus: Collagen-induced arthritis, treatment from 3 days before collagen. Format: in vivo, DBA/1 LacJ mice. The procedure:
(§1) Collagen-induced arthritis is a standard model for evaluating potential therapeutic agents for rheumatoid arthritis (Courtenay et al., Nature 283:666, 1980; Williams et al., Proc Natl Acad Sci USA 89:9784, 1992; Gerlag et al., J Immunol 165:1652, 2000). Arthritis was induced in 7-9 week old female DBA/1 LacJ mice by immunization with collagen. On day 0, the mice were injected at the base of the tail with 100 μg bovine type II collagen in complete Freund's adjuvant. On day 7, mice were boosted with an intraperitoneal injection of 100 μg collagen. To enhance and synchronize synovitis, the mice were injected subcutaneously on day 14 with 100 μg of lipopolysaccharide (LPS). Joint swelling was monitored in a blinded fashion by measuring the diameter in all 4 paws and both ankles using a constant pressure gauge. Arthritis Index was also determined on the following scale, and summed for all extremities. 0≡normal; 1≡one digit swollen; 2≡more than one digit swollen; 3≡joint distortion; 4≡ankylosis. The arthritis experiments were conducted under contract by Calvert Preclinical Services, Inc., Olyphant Pa.
As is typical in this model, not all animals respond to the collagen challenge.

The subject of data set [3] is collagen-induced arthritis. The data set can be described thus: Collagen-induced arthritis, treatment of established disease. Format: in vivo. As for the experimental part: as §1
Mice were immunized with collagen on days 0, and 7, and then boosted with LPS on day 14. Treatment with MP8 was initiated on day 22 when arthritis was well established. At that time, animals with arthritis were randomized into three groups, and unaffected animals were excluded. The three affected groups were then treated for 18 consecutive days with saline control, or with MP8 at either of two different doses.

B1: MP8: polypeptide having the sequence of SEQ. ID NO:41 (usually with a HIS tag); cytokine receptor releasing protein expressed in E. coli (protein, listed as Homo sapiens)
chain: WIQRIRHEGNSTVYEWRTGTEPSVVERPHLEELPEQVAEDAIDWGDFGVEAVSEGTDSGISAEAAGIDWGIFPESDSKDPGGDGIDWGDDAVALQITVLEAGTQAPEGVARGPDALTLLEYTETRNQFLDELMELEIFLAQRAVELSEEADVLSVSQFQLAPAILQGQTKEKMVTMVSVLEDLIGKLTSLQLQHLFMILASPRYVDRVTEFLQQKLKQSQLLALKKELMVQKQQEALEEQAALEPKLDLLLEKTKELQKLIEADISKRYSGRPVNLMGTSL
modifications: HIS tag
notes: ID NO:41 (usually with a HIS tag); cytokine receptor releasing protein expressed in E. coli
With B1, the “cleavage of p55 TNF receptor (R1) peptide” value with p55 TNF Receptor was “cleaves”. The “cleavage of p75 TNF receptor on the surface of cells” value with p75 TNF Receptor is on record as “cleaves”. Besides, the “protection against LPS-induced septic shock” value in the data set on LPS-induced septic shock (50,000 FU, simultaneously with LPS challenge or 3 hours in advance) was “fully protective”; in the data set on LPS-induced septic shock (300,000 FU, one hour before LPS challenge) it was “completely protective”; in the data set with LPS-induced septic shock (single dose of 30,000 FU, one hour before LPS challenge) it was “able to protect a proportion of the challenged subjects”. Further, the “clinical efficacy in septic shock model after storage” value in the data set with LPS-induced septic shock (300,000 FU stored 4 days at −70° C. or 7 days at 4° C., one hour before challenge) is listed as “can be frozen without causing a loss in clinical efficacy”. The “protection against septic shock when administered days in advance” value with LPS-induced septic shock (300,000 FU subcutaneously up to three days in advance) is “able to protect most mice up to 3 days after administration”. The “loss of peptide cleaving activity on storage” value in data set [1] was “no detectable loss of activity”. In data set [2] (300,000 FU daily), the “effectiveness compared with Enbrel” value is listed as “at least as effective as a scaled dose of Enbrel®”. Besides, the “animals affected by arthritis” value in data set [2] (300,000 FU daily starting 3 days before first collagen injection, 8 out of 9 controls affected) is given as “none of the animals treated with MP8 were affected”. Further, the “joint swelling and arthritis index” value in data set [2] (300,000 FU daily, prophylactic) is recorded as “prevented the animals from showing any measurable signs of the disease”. Further, the toxicity entry in data set [3] (MP8 treated groups) was “No toxicity was detected”. For the same molecule, the “swelling in the affected joints” value in data set [3] (daily for 18 days from day 22, two doses, p<0.001 vs control) was “highly significant reduction in swelling”. Moreover, in data set [3] (higher dose, end of experiment), the “severity of inflammatory synovitis by histopathology” value is “lower severity of inflammatory synovitis”. The “level of antibodies to type II collagen in serum” value in data set [3] (low or high dose, ELISA, p<0.02) is “almost half the control”.
